Laboratory results as given in patent US20240076386A1 (Pfizer, published 2024).
Where a chain is given by its changes, count along the chain named.

T1: human E-selectin, cell-surface expressed (human, UniProt P16581 22-610)
T1 sequence: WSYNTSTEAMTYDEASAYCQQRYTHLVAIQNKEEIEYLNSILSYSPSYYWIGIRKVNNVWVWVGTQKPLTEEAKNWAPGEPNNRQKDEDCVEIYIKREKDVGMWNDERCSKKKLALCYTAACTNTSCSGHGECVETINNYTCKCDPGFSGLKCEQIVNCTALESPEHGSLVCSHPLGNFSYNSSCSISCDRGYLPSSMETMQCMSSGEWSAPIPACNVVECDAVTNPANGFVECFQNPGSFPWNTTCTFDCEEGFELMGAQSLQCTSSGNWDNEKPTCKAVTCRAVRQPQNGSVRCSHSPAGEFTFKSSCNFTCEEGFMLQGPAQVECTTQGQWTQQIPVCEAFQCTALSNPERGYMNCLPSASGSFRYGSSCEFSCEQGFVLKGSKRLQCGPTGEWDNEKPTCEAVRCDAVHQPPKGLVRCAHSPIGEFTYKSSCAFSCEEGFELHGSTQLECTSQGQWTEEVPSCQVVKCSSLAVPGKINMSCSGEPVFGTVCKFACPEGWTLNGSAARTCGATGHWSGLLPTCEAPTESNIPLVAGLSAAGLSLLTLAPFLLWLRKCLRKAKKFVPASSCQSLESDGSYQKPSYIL

T2: soluble recombinant human L-selectin (human, UniProt P14151 39-332, limits assumed)
T2 sequence (looked up): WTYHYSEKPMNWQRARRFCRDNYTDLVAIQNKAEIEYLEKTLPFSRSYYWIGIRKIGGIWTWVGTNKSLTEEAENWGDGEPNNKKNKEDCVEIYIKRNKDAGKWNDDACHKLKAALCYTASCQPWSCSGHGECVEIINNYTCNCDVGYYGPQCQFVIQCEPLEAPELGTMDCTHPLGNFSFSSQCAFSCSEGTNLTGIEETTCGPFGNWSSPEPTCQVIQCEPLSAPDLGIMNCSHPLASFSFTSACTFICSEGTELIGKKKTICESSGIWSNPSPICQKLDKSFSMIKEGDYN

T3: cynomolgus monkey E-selectin, cell-surface expressed (cynomolgus monkey, UniProt P16581 22-610 (human entry))
T3 construct: also called CHO-cynomolgus monkey E-selectin cells; cynomolgus monkey CHO-E
T3 chain: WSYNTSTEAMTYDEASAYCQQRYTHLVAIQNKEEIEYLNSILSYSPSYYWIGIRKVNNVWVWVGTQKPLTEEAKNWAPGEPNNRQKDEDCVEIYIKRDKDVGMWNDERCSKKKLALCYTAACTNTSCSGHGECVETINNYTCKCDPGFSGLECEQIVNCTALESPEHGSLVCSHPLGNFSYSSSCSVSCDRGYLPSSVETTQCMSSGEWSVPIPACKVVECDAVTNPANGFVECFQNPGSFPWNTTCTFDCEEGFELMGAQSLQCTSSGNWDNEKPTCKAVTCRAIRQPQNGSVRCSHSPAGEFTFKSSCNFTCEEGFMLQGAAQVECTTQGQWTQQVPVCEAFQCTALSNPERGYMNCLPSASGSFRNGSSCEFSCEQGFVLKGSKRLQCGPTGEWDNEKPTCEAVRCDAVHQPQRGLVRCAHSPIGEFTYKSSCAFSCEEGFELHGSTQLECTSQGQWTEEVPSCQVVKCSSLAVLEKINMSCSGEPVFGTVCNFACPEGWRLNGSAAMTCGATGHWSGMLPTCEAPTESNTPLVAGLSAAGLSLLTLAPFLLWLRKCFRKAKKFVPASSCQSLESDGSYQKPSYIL

B1: anti-E-selectin antibody 0164 chimera (antibody, human IgG1, kappa, V domains shown)
VH: EVQLQQSGAEFGKPGTSVKLSCKVSGYNIRSSYMHWVNQRPGKGLEWIGRIDPANGNTIYAEKFKIKAILTADSSSNTAYMQLSQLKSDDTAIYFCAMDLYSTSEYWGQGVMVTVSS
VL: DIQMTQSPSFLSASVGDRVTINCKTSQNINRYLNWYQQKLGEAPKLLIYNANSLQTGIPSRFSASGSGTDFTLTINSLQPEDVATYFCLQDNSWPLTFGSGTKLEIKR
notes: rat VH/VL on effector-null human IgG1 and human kappa
B2: optimized anti-E-selectin antibody 1282 (antibody, human IgG1, kappa, V domains shown)
VH: EVQLVESGGGLVQPGGSLRLSCAASGYAIRSAYMHWVRQAPGKGLEWVARIDPANGNTIYVDSVEGRFTISADNAKNSAYLQMNSLRAEDTAVYYCAMDLYSTSEYWGQGTLVTVSS
VL: DIQMTQSPSSLSASVGDRVTITCKTSQNIERYLNWYQQKPGKAPKLLIYAASSLQSGVPSRFSGSGSGTDFTLTISSLQPEDFATYFCLQDNAWPLTFGQGTKVEIKR
notes: effector-null human IgG1, kappa
B3: optimized anti-E-selectin antibody 1448 (antibody, human IgG1, kappa, V domains shown)
VH: B2 VH with E65K, G66E
VL: B2 VL
notes: as for B2
B4: optimized anti-E-selectin antibody 1444 (antibody, human IgG1, kappa, V domains shown)
VH: B2 VH with E65T
VL: B2 VL
notes: as for B2
B5: optimized anti-E-selectin antibody 1284 (antibody, human IgG1, kappa, V domains shown)
VH: B2 VH with D62E
VL: B2 VL
notes: as for B2
B6: humanized anti-E-selectin antibody 0841 (antibody, human IgG1, kappa, V domains shown)
VH: B2 VH with A28N, A32S, V61A, D62E, S63K, V64F, E65K, G66I
VL: B2 VL with E30N, A50N, S52N, S56T, A93S
notes: as for B2

The binders below were run against T1, human E-selectin, cell-surface expressed (assay: cell-based or functional assay).

static neutralization of HL-60 cell adhesion, CHO-human E-selectin cells-IC50 [nM]	Binder
4.4	B1
3.4	B2
6.2	B3
4.7	B4
4.4	B5

These binders were tested against T2, soluble recombinant human L-selectin (assay: direct binding ELISA on immobilized human L-selectin, absorbance at 450 nm).
Procedure: Recombinant histidine tagged human P-, E- or L-selectin (Sino Biologicals), mouse E-selectin (Sino Biologicals), rat E-selectin (Sino Biologicals) and Cynomolgus monkey E-selectin (Sino Biologicals) stock solutions were prepared to a final concentration of 1 μg/mL in phosphate buffered saline without calcium and magnesium. Controls included an L-selectin directed antibody (BioLegend; 304811) or P-selectin directed antibody or a negative control IgG. One hundred μL per well of the diluted recombinant selectin proteins were added into a Ni-NTA HisSorb 96 well plate (Qiagen; 35061). Plates were incubated on an orbital shaker at room temperature for 2 hours. Following the incubation, the plates were washed 3 times with 200 μL of wash buffer (50 mM TRIS [trisaminomethane]; 150 mM sodium chloride; 0.05% polysorbate 20, pH 7.4). To decrease nonspecific binding, plates were treated with 200 μL of blocking buffer (BD Opteia buffer; 555213; BD Biosciences), incubated on an orbital shaker for 1 hour at room temperature and washed as described above. […] One hundred μL specific detection antibodies (described below) were added and incubated for 1 hour: [0556] […] Anti L-selectin and anti-rat-E-selectin antibodies were detected using 1 to 25000 dilution of Peroxidase-conjugated AffiniPure Goat Anti-Mouse IgG (H+L); (Jackson ImnnunoResearch Lab).
Plates were washed and 100 μL per well of 1-Step Ultra TMB substrate (Thermo Scientific) was added and incubated for 5 minutes at room temperature. Reactions were stopped with 100 μL of 2 M sulfuric acid and absorbance read at 450 nm (Spectramax M5e).

binding result	Binder
no binding (tested: 10 ug/ml)	B6
no binding (tested: 10 ug/ml)	B2
no binding (tested: 10 ug/ml)	B3
no binding (tested: 10 ug/ml)	B4
no binding (tested: 10 ug/ml)	B5

Target: T3, cynomolgus monkey E-selectin, …
Test: competition ELISA on CHO cells vs sialyl Lewis ligand-PAA-biotin/SA-HRP
Procedure: In a static ligand cellular adhesion assay, horse radish peroxidase (HRP) conjugated E-selectin ligand (sialyl Lewis antigen) and E-selectin antibodies compete for binding to human or cynomolgus E-selectin expressed on Chinese hamster ovary (CHO) cells. The ability of anti-E-selectin antibodies to neutralize ligand binding was assessed in a static neutralization assay using a competition enzyme-linked immunosorbent assay (ELISA) to evaluate the neutralization of the sialyl Lewis antigen to Chinese hamster ovary cells (CHO) engineered to express human or cynomolgus monkey E-selectin.
CHO cells expressing E-selectin were seeded at 12,500 cells per well into a 96 well tissue culture plate and incubated at 37° C., 5% CO₂ for 48 hours to form a confluent monolayer. Plates were subsequently washed twice with 200 μL of calcium magnesium free PBS. Anti-E-selectin antibodies or an IgG1 isotype control (IgG control) were added to the assay in the presence of a small synthetic conjugate of biotinylated, sialyl Lewis A polyacrylamide (Carbosynth LLC, OS45446) or sialyl Lewis X polyacrylamide (Glycotech, 01-045) with streptavidin/horseradish peroxidase (100 μL total) and incubated at 37° C., 5% CO₂ for 2 hours. Plates were then washed twice with 200 μL of calcium and magnesium free PBS. Following the incubation, the cells were washed twice with 200 μL of wash buffer containing 2 mM of calcium chloride (50 mM TRIS [trisaminomethane], 150 mM sodium chloride; 0.05% polysorbate 20, pH 7.4; 2 mM calcium chloride). Signal was developed by adding 100 μL of 1-Step Ultra TMB substrate (Thermo Scientific, 34028) and incubating for 30 minutes at room temperature. Reactions were stopped using 2 M of sulfuric acid and absorbance was read at 450 nm (Spectramax M5e). Data were analyzed and graphed using GraphPad Prism software (Version 8.0.2).

IC50 [nM]	Binder
2.25	B1
1.29	B2
1.85	B3
2.65	B4
1.91	B5
